Patent KR20230083068A (dated 2023)

Tests used:
[1] = target: T1, 비오틴 펩타이드-6xHis-tagged HCoV-OC43 N 단백질 (HCoV-OC43 N 단백질-Bio-His6) (HCoV-OC43, UniProt P33469 1-448)
T1 chain: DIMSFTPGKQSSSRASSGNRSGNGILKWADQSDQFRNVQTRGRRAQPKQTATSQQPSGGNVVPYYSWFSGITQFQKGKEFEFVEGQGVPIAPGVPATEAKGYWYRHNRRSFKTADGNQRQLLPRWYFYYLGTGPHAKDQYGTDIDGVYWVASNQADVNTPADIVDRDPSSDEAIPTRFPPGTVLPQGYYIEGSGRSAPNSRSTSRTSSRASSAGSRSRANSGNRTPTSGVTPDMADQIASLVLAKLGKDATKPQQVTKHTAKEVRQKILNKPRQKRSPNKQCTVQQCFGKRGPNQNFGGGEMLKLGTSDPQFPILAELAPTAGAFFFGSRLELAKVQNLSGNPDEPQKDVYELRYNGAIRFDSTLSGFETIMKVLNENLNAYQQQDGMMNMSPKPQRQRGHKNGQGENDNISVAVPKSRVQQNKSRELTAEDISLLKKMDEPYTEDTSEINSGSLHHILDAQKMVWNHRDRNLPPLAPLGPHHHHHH

[2] = target: MERS-CoV N 단백질 (MERS-CoV 감염 Vero 세포 용해물) (MERS-CoV, UniProt K9N4V7 1-411); experiment: western blot of infected Vero cell lysates
[3] = target: SARS-CoV-2 N 단백질 (SARS-CoV-2 감염 Vero 세포 용해물) (SARS-CoV-2, UniProt P0DTC9 1-419); experiment: western blot of infected Vero cell lysates

B1: 항-HCoV-OC43 N 단백질 특이적 단클론 항체 (클론 1C7D7 mAb) (antibody, V domains shown)
VH: EVKLEQSGGGLVKPGGSLKLSCAASGFSFSSHTMSWVRQTPEKRLEWVATITSGGTYTYYPDSVKGRFTISRDNAKNTLYLQMTSLKSEDTAMYYCTRGQEADGYYVPFAYWGQGTLVTVSA
VL: DIVMTQSPSSLAVSVGEKVTMSCKSSQSLLYSSNQKNYLAWYQQKPGQSPKLLIFWASTRESGVPDRFTGSGSGTDFTLTISSVQAEDLAVYYCKQSYNLRTFGGGTKLEIKR
notes: also called anti-HCoV-OC43 N monoclonal antibody
EC50 [1]: ~1.2 nM
binding result [2]: no binding
binding result [3]: no binding
